According to PMC11288887 (2024):
No end group written: not given here.

Experiments:
Test in all cases: FP
(DLP)6 binder = biological target: (DLP)6 binder
(DLS)6 binder = biological target: (DLS)6 binder
(KLP)6 binder = biological target: (KLP)6 binder

Row | Kd ((DLP)6 binder) [nM] | Kd ((DLS)6 binder) [nM] | Kd ((KLP)6 binder) [nM] | Binder
1 | ~1000 | ~1800 | – | tetramethylrhodamine-KLPKLPKLPKLPKLPKLP [(KLP)6]
2 | – | 0.7 | 4.6 | tetramethylrhodamine-DLPDLPDLPDLPDLPDLP [(DLP)6]
